Measurements published in the supplement of paper PMC9732359.
± gives the uncertainty stated by the source.

Assay: protein stability index of a GFP-peptide fusion (yeast GPS) (PSI 1-4); higher = more stable; sorted into four equal gates, so the index is relative within each strain
Summary of the method: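 Tiled 17-residue peptides from yeast proteins were fused downstream of GFP on a plasmid that also expresses Cherry, and the pooled library was carried in yeast. Mid-log cultures grown in leucine-free medium were sorted into four equal gates by GFP/Cherry fluorescence ratio. Plasmids from each gate were PCR-amplified and Illumina-sequenced, and reads were assigned to strains by barcodes. Each peptide's protein stability index is the sum, over gates, of the gate's read frequency multiplied by its gate number.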

Sequence | protein stability index (doa10∆) | protein stability index (pdr5∆) | protein stability index (san1∆) | protein stability index (ubr1∆)
KLAKNLQIGDVVERHLE [RPO31] | 3.25 ± 0.15 | 3.49 ± 0.12 | 3.31 ± 0.069 | 3.2 ± 0.12
LGTLVNQKTSAVAALTE [RPL8A] | 2.37 ± 0.095 | 2.45 ± 0.082 | 2.4 ± 0.15 | 2.25 ± 0.11
LIQLQNIFKAEMDSVSK [CSN9] | 2.55 ± 0.08 | 2.54 ± 0.14 |  | 2.81 ± 0.13
QLENADTGTLDTKSVVG [RPN2] | 3.09 ± 0.087 | 3.01 ± 0.082 | 3.08 ± 0.071 | 3.04 ± 0.075
YTRYLDRIYMLFHFEED [PRP8] | 1.68 ± 0.059 | 1.4 ± 0.051 | 1.5 ± 0.12 | 1.61 ± 0.043
QMEDMEESINEFKSIEI [SMC4] | 3.28 ± 0.13 | 3.4 ± 0.11 | 3.27 ± 0.049 | 2.93 ± 0.085
RAGIIIAKLSVIPIRRG [RPS2] | 2.21 ± 0.077 | 2.13 ± 0.047 | 1.31 ± 0.13 | 2.25 ± 0.072
IIQLILWSIHPSRQFDH [SRB8] | 1.57 ± 0.047 | 1.47 ± 0.049 | 1.59 ± 0.087 | 1.54 ± 0.05
QIDQLNRLLPNLPEEER [GRR1] | 2.62 ± 0.091 | 2.12 ± 0.064 | 2.05 ± 0.098 | 2.51 ± 0.083
KFGLLLQVSAQERKDFL [ECM29] | 1.6 ± 0.082 | 1.5 ± 0.056 | 1.59 ± 0.2 | 1.57 ± 0.047
SSDGQLKKFRESLVHSA [BRR2] | 3.41 ± 0.15 | 3.25 ± 0.23 | 3.22 ± 0.16 | 3.33 ± 0.13
IPVGLMAQENSMERKVQ [MCD1] |  | 3.38 ± 0.29 |  | 3.19 ± 0.1
MINDENYIINDIKKNNK [SRB8] | 3.15 ± 0.078 | 2.97 ± 0.095 | 3.42 ± 0.12 | 3.21 ± 0.13
SLDDNSTSLEKQINSIK [YJL041W/NSP1] | 2.78 ± 0.079 | 3.08 ± 0.065 | 2.97 ± 0.045 | 2.96 ± 0.048
KTIVTGGNGPEDFQQHE [RPO26] | 3.29 ± 0.069 | 3.33 ± 0.055 | 3.32 ± 0.056 | 3.31 ± 0.039
ESEKLVTPEDVMTISSL [RPC82] | 3.23 ± 0.083 | 3.13 ± 0.078 | 3.05 ± 0.059 | 3.26 ± 0.072
IKKFAKLHMGTDDVRLA [RPL31A] | 1.7 ± 0.037 | 1.32 ± 0.042 | 1.24 ± 0.064 | 1.58 ± 0.037
SPELKADLRPLQIKSIR [RPS7B] | 2.42 ± 0.14 | 2.9 ± 0.13 | 2.67 ± 0.13 | 2.98 ± 0.091
GVTKGYKYKMRYVYAHF [RPL9A] | 2.73 ± 0.14 |  | 3.12 ± 0.12 | 2.87 ± 0.16
ENLFSKEEVCQGMEGTV [YMR129W/POM152] | 2.5 ± 0.073 | 2.95 ± 0.073 | 2.92 ± 0.054 | 2.65 ± 0.089
SNYAASNSMDRSSSASN [SWI1] | 2.79 ± 0.14 | 2.7 ± 0.089 | 2.88 ± 0.07 | 2.84 ± 0.093
NTLYTAIITDDLDTVLK [SRP72] | 2.19 ± 0.039 | 2.5 ± 0.031 | 2.44 ± 0.041 | 2.6 ± 0.035
TDVKLTLPQPRLNKLNS [SMD1] | 2.73 ± 0.066 | 2.79 ± 0.059 | 2.1 ± 0.071 | 2.73 ± 0.059
LFSEKTIRYLMQKQHEM [SNF6] | 2.63 ± 0.044 | 2.55 ± 0.045 | 2.44 ± 0.069 | 2.66 ± 0.034
LPDGKNGNLEEEFAYVD [MED6] | 3.41 ± 0.066 | 3.44 ± 0.12 | 3.42 ± 0.052 | 3.32 ± 0.074
VFDKDGNYIKTENATEN [LIN1] |  |  |  | 3.72 ± 0.28
TANDRQINNVHLIPNEI [RPN4] | 2.88 ± 0.063 | 3.02 ± 0.062 | 2.92 ± 0.052 | 2.94 ± 0.055
EYWAQRKKKFVLDVDPK [ISW2] | 3.08 ± 0.094 | 2.48 ± 0.26 | 3.03 ± 0.21 | 3.28 ± 0.21

Sequence | protein stability index (doa10∆) | protein stability index (pdr5∆) | protein stability index (san1∆) | protein stability index (ubr1∆)
IIFQQLLFWTDPRNLVN [YCG1] | 2.04 ± 0.082 | 2.35 ± 0.067 | 3.1 ± 0.059 | 2.13 ± 0.11
HCIDYLRKNKLGYARFI [SMC4] | 1.19 ± 0.036 | 1.21 ± 0.039 | 1.14 ± 0.091 | 1.14 ± 0.04
PELNVSLNLTDDVISNA [MCD1] | 3.09 ± 0.04 | 3.21 ± 0.042 | 3.1 ± 0.036 | 3.15 ± 0.032
ELLEHIETIGHLITKEE [RPN5] | 2.91 ± 0.076 | 3.03 ± 0.11 | 3.08 ± 0.068 | 3.12 ± 0.076
EQELAHILLTELLAYQF [FAS2] | 2.547 ± 0.023 | 2.807 ± 0.025 | 2.67 ± 0.023 | 2.633 ± 0.019
TKCSTVVKASELDQFWQ [SRP14] | 2.17 ± 0.041 | 2.14 ± 0.047 | 2.04 ± 0.082 | 1.72 ± 0.03
GSENKRGSLDSEHVFDY [NUT1] | 3.37 ± 0.14 | 3.29 ± 0.11 | 3.32 ± 0.2 | 3.57 ± 0.05
VYKFMSLAKSSALWSSR [ECM29] |  | 1.97 ± 0.16 | 1.39 ± 0.2 | 1.74 ± 0.29
LFQRQKLHEFYLLISKE [IRR1] | 2.69 ± 0.12 | 2.97 ± 0.076 | 2.63 ± 0.061 | 2.87 ± 0.12
QGIVRVYSKQATFLLTD [MCD1] | 1.97 ± 0.038 | 2.29 ± 0.047 | 2.35 ± 0.049 | 2.03 ± 0.037
SEPIDLIIIEKKQKLIE [ITC1] |  |  | 2.87 ± 0.18 | 2.69 ± 0.13
SSQNNSELAPIEEHPTV [IRR1] |  |  |  | 3.14 ± 0.17
MFRYKTNLYKLKEERAI [PUP3] | 2.87 ± 0.22 | 2.67 ± 0.17 | 1.78 ± 0.17 | 2.1 ± 0.093
MTDMQIQWYKSLLEKDI [ISW2] | 1.84 ± 0.058 | 2.35 ± 0.062 | 1.74 ± 0.092 | 2.78 ± 0.061
EIDDTEAEVTAEVNGGD [BRR2] | 3.13 ± 0.088 | 2.79 ± 0.12 | 3.01 ± 0.13 | 3.16 ± 0.065
MPDEFNTLYTAIITDDL [SRP72] | 2.39 ± 0.047 | 2.5 ± 0.043 | 2.6 ± 0.035 | 2.64 ± 0.043
KSAEGNNIDQSLILKES [YAR002W/NUP60] | 2.82 ± 0.095 | 2.86 ± 0.063 | 2.61 ± 0.096 | 3 ± 0.078
MALKFVSIKFTNAAFPF [ECM29] | 2.09 ± 0.058 | 1.98 ± 0.058 | 1.76 ± 0.078 | 1.82 ± 0.071
KRQAYAVSEKAGHQTSA [RPL4A] | 2.14 ± 0.12 | 1.4 ± 0.13 | 1.65 ± 0.12 | 2.34 ± 0.078
NWRKQKGIDSVVRRRFR [RPL32] | 2.56 ± 0.1 | 2.66 ± 0.17 |  | 2.28 ± 0.18
ADKKDDSESNSEPIDLI [ITC1] | 3.05 ± 0.079 | 3.32 ± 0.087 | 3.02 ± 0.12 | 3.35 ± 0.081
DFELEISWCSLSETNGL [PRE10] | 2.92 ± 0.076 | 2.93 ± 0.094 | 2.84 ± 0.083 | 2.84 ± 0.069
KKQVHVYRFVTENAIEE [ISW2] | 1.68 ± 0.07 | 1.77 ± 0.075 | 1.87 ± 0.12 | 1.91 ± 0.045
IKQQQQQQQQQNGQQPP [YML103C/NUP188] | 2.31 ± 0.036 | 2.63 ± 0.039 | 2.48 ± 0.04 | 2.39 ± 0.034
PRFLNKQERSKQERLKE [PRP28] | 1.91 ± 0.091 | 2.53 ± 0.13 | 3.34 ± 0.11 | 2.13 ± 0.089
KIQETELKIRSKTENVR [RPT6] | 2.35 ± 0.11 | 2.61 ± 0.088 | 2.23 ± 0.16 | 2.57 ± 0.073
SQLDLFLRTMKLTSEET [GRR1] | 2.77 ± 0.055 | 2.7 ± 0.052 | 3 ± 0.06 | 3.09 ± 0.043
